# T1: MBP-FoxP3dN;NFAT1 DBD (Mus musculus;Mus musculus?, UniProt Q99JB6;Q60591 188-423;394-680, |)
# T1 sequence 1: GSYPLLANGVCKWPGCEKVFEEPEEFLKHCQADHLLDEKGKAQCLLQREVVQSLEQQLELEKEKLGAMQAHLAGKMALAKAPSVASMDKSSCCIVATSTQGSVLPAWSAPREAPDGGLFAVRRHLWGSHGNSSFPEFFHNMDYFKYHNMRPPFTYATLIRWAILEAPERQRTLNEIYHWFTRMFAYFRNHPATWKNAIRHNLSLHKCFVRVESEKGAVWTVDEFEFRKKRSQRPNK
# T1 sequence 2: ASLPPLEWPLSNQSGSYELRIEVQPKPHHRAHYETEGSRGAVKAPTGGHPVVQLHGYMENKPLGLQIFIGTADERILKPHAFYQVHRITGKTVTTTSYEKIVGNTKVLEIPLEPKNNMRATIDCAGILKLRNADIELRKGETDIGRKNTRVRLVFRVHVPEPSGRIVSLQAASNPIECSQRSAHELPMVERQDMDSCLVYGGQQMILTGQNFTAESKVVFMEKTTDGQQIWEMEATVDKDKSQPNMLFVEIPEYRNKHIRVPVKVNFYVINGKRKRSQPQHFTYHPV
# T2: MBP-FoxP3dN (Mus musculus, UniProt Q99JB6 188-423)
# T2 sequence: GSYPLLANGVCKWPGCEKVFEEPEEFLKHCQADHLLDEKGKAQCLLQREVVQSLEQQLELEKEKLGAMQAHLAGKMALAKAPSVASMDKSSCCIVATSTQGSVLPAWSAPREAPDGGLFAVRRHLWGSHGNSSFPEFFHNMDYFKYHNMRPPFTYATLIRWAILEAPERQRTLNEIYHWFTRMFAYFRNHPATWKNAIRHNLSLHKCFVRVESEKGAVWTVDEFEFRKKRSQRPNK
# T3: FoxP1RBR-FoxP3FKH;NFAT1 DBD (Mus musculus;Mus musculus?, UniProt P58462;Q60591 427-492+Q99JB6:337-423;394-680, internal_change|)
# T3 sequence 1: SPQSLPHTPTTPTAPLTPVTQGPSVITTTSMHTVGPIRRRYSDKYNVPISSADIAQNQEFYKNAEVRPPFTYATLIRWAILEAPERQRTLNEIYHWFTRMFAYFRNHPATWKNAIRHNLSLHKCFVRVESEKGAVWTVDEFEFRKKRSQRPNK
# T3 sequence 2: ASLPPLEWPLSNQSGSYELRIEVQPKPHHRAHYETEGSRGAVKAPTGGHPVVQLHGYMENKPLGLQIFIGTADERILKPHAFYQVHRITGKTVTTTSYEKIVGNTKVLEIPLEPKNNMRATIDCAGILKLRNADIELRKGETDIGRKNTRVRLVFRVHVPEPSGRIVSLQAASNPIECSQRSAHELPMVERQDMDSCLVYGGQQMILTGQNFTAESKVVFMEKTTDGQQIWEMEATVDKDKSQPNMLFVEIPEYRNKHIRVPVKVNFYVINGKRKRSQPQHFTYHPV
# T4: FoxP3 RBR-FKH;NFAT1 DBD (Mus musculus;Mus musculus?, UniProt Q99JB6;Q60591 284-423;394-680, |)
# T4 sequence 1: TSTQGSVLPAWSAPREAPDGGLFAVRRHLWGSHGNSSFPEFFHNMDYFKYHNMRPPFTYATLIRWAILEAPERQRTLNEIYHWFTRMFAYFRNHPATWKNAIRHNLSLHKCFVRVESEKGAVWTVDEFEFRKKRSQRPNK
# T4 sequence 2: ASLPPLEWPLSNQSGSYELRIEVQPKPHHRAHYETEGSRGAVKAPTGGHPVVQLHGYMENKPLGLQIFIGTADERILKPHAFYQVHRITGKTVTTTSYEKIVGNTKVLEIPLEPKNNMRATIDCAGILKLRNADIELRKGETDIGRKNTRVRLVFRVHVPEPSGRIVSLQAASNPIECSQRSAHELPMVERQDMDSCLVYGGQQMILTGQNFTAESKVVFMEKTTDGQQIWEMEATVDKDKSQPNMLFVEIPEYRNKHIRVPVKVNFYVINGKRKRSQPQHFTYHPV
# T5: FoxP1 RBR-FKH;NFAT1 DBD (Mus musculus;Mus musculus?, UniProt P58462;Q60591 427-579;394-680, |)
# T5 sequence 1: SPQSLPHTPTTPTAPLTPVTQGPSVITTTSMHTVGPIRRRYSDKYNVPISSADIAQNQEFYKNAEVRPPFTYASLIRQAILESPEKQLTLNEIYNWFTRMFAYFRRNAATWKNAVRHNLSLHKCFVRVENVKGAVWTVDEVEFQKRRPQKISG
# T5 sequence 2: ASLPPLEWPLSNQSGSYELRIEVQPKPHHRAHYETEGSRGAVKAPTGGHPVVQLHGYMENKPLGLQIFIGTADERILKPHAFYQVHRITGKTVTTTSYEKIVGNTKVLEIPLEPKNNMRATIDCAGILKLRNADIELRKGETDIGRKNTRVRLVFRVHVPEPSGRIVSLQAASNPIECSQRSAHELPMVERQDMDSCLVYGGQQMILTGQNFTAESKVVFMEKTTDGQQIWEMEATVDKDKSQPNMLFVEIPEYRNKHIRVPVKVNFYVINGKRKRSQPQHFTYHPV
# T6: FoxP3RBR-FoxP1FKH;NFAT1 DBD (Mus musculus;Mus musculus?, UniProt Q99JB6;Q60591 284-336+P58462:493-579;394-680, internal_change|)
# T6 sequence 1: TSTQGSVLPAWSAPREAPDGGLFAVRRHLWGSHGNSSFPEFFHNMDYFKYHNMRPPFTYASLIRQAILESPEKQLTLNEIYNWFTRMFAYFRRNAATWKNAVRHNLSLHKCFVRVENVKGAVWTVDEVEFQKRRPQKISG
# T6 sequence 2: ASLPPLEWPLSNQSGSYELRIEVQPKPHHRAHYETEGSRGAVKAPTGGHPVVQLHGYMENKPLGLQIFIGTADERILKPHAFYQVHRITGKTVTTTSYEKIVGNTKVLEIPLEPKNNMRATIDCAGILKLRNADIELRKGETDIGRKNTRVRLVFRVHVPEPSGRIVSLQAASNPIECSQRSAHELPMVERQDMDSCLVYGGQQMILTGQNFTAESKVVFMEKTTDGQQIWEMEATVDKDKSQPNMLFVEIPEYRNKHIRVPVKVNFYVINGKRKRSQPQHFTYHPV
# Assays:
# [1] = target: T1, MBP-FoxP3dN;NFAT1 DBD; experiment: pull-down; NFAT enhances binding; Pull-down: 20 mM Tris-HCl pH 7.5, 100 mM NaCl, 1.5 mM MgCl2, room temperature, 0.4 uM MBP protein, 0.1 uM DNA (NFAT 0.2 uM); EMSA: 20 mM HEPES pH 7.5, 150 mM NaCl, 1.5 mM MgCl2, 2 mM DTT, 4 C, 0.2 uM DNA (RBR-FKH 0.8 uM, NFAT 0.4 uM); details: protein: recombinant;recombinant; tags: His6-MBP;none (His6-NusA cleaved); chain copies: 2;1; blunt
# [2] = target: T2, MBP-FoxP3dN; experiment: pull-down; comparable to IR-FKHM; Pull-down: 20 mM Tris-HCl pH 7.5, 100 mM NaCl, 1.5 mM MgCl2, room temperature, 0.4 uM MBP protein, 0.1 uM DNA (NFAT 0.2 uM); EMSA: 20 mM HEPES pH 7.5, 150 mM NaCl, 1.5 mM MgCl2, 2 mM DTT, 4 C, 0.2 uM DNA (RBR-FKH 0.8 uM, NFAT 0.4 uM); details: protein: recombinant; tags: His6-MBP; chain copies: 2; blunt
# In short: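 0.4 µM MBP-tagged mouse FoxP3 fragment (plus 0.2 µM NFAT fragment where included) was mixed with 0.1 µM duplex DNA in Tris buffer with NaCl and MgCl2 at room temperature. Complexes were captured on amylose resin, and proteinase K-released DNA was run on 10% TBE gels stained with SYBR Gold. In a gel-shift arm, 0.2 µM DNA and protein were held 10 min at 4 °C in HEPES buffer, then run on native gels. Binding was judged qualitatively from gels.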
# [3] = target: T2, MBP-FoxP3dN; experiment: pull-down; Pull-down: 20 mM Tris-HCl pH 7.5, 100 mM NaCl, 1.5 mM MgCl2, room temperature, 0.4 uM MBP protein, 0.1 uM DNA (NFAT 0.2 uM); EMSA: 20 mM HEPES pH 7.5, 150 mM NaCl, 1.5 mM MgCl2, 2 mM DTT, 4 C, 0.2 uM DNA (RBR-FKH 0.8 uM, NFAT 0.4 uM); details: protein: recombinant; tags: His6-MBP; chain copies: 2; blunt
# [4] = target: T3, FoxP1RBR-FoxP3FKH;NFAT1 DBD; experiment: EMSA; monomer; Pull-down: 20 mM Tris-HCl pH 7.5, 100 mM NaCl, 1.5 mM MgCl2, room temperature, 0.4 uM MBP protein, 0.1 uM DNA (NFAT 0.2 uM); EMSA: 20 mM HEPES pH 7.5, 150 mM NaCl, 1.5 mM MgCl2, 2 mM DTT, 4 C, 0.2 uM DNA (RBR-FKH 0.8 uM, NFAT 0.4 uM); details: protein: recombinant;recombinant; tags: none (His6-NusA cleaved);none (His6-NusA cleaved); copies: 1;1; blunt
# [5] = target: T4, FoxP3 RBR-FKH;NFAT1 DBD; experiment: as above; details: protein: recombinant;recombinant; tags: none (His6-NusA cleaved);none (His6-NusA cleaved); copies: 1;1; blunt
# [6] = target: T5, FoxP1 RBR-FKH;NFAT1 DBD; experiment: as above; details: protein: recombinant;recombinant; tags: none (His6-NusA cleaved);none (His6-NusA cleaved); copies: 1;1; blunt
# [7] = target: T6, FoxP3RBR-FoxP1FKH;NFAT1 DBD; experiment: as above; details: protein: recombinant;recombinant; tags: none (His6-NusA cleaved);none (His6-NusA cleaved); chain copies: 2;1; blunt
# [8] = target: T4, FoxP3 RBR-FKH;NFAT1 DBD; experiment: EMSA; dimer; Pull-down: 20 mM Tris-HCl pH 7.5, 100 mM NaCl, 1.5 mM MgCl2, room temperature, 0.4 uM MBP protein, 0.1 uM DNA (NFAT 0.2 uM); EMSA: 20 mM HEPES pH 7.5, 150 mM NaCl, 1.5 mM MgCl2, 2 mM DTT, 4 C, 0.2 uM DNA (RBR-FKH 0.8 uM, NFAT 0.4 uM); details: protein: recombinant;recombinant; tags: none (His6-NusA cleaved);none (His6-NusA cleaved); copies: 1;1; blunt
# [9] = target: T6, FoxP3RBR-FoxP1FKH;NFAT1 DBD; experiment: as above; details: protein: recombinant;recombinant; tags: none (His6-NusA cleaved);none (His6-NusA cleaved); chain copies: 2;1; blunt
# [10] = target: T1, MBP-FoxP3dN;NFAT1 DBD; experiment: pull-down; optimal NFAT cooperativity; Pull-down: 20 mM Tris-HCl pH 7.5, 100 mM NaCl, 1.5 mM MgCl2, room temperature, 0.4 uM MBP protein, 0.1 uM DNA (NFAT 0.2 uM); EMSA: 20 mM HEPES pH 7.5, 150 mM NaCl, 1.5 mM MgCl2, 2 mM DTT, 4 C, 0.2 uM DNA (RBR-FKH 0.8 uM, NFAT 0.4 uM); details: protein: recombinant;recombinant; tags: His6-MBP;none (His6-NusA cleaved); chain copies: 2;1; blunt
binder,measurement,setting,value
Var2 (dsDNA) DNA 1: TTAGGAAATTTGCGCATCTCGAGTAAACAAATTT DNA 2: AAATTTGTTTACTCGAGATGCGCAAATTTCCTAA,binding result,[1],binds
DNA 10 (Fig S1F) (dsDNA) DNA 1: AATTTGTTGCATTCGAGTAAACAAATTT DNA 2: AAATTTGTTTACTCGAATGCAACAAATT,binding result,[2],binds
IR-FKHM (Fig 1C) (dsDNA) DNA 1: TAGGAAAATTTGTTTACTCGAGTAAACATC DNA 2: GATGTTTACTCGAGTAAACAAATTTTCCTA,binding result,[3],binds
DNA 2 (Fig S1F) (dsDNA) DNA 1: AATTTTGTTGTGTCGAGTAAACAAATTT DNA 2: AAATTTGTTTACTCGACACAACAAAATT,binding result,[2],binds
DNA 5 (Fig S1F) (dsDNA) DNA 1: AATTTGTGTTTATCGAGTAAACAAATTT DNA 2: AAATTTGTTTACTCGATAAACACAAATT,binding result,[2],binds
DNA 4 (Fig S1F) (dsDNA) DNA 1: AATTTTGTTTATTCGAGTAAACAAATTT DNA 2: AAATTTGTTTACTCGAATAAACAAAATT,binding result,[2],binds
DNA2 (NFAT sFKHM) (dsDNA) DNA 1: TTAGGAAAATTTGTTTACTCCTCGCGGCAAA DNA 2: TTTGCCGCGAGGAGTAAACAAATTTTCCTAA,binding result,[4],binds
same,binding result,[5],binds
same,binding result,[6],binds
same,binding result,[7],binds
DNA 3 (Fig S1F) (dsDNA) DNA 1: AATTTTGTGCATTCGAGTAAACAAATTT DNA 2: AAATTTGTTTACTCGAATGCACAAAATT,binding result,[2],binds
DNA1 (NFAT IR-FKHM) (dsDNA) DNA 1: TTAGGAAAATTTGTTTACTCGAGTAAACAAA DNA 2: TTTGTTTACTCGAGTAAACAAATTTTCCTAA,binding result,[4],binds
same,binding result,[6],binds
same,binding result,[8],binds
same,binding result,[9],binds
Var7 (dsDNA) DNA 1: TTAGGAAATTTGTGCATTCGAGTAAACAAATTT DNA 2: AAATTTGTTTACTCGAATGCACAAATTTCCTAA,binding result,[10],binds
DNA 8 (Fig S1F) (dsDNA) DNA 1: AATTTGTGTTGTTCGAGTAAACAAATTT DNA 2: AAATTTGTTTACTCGAACAACACAAATT,binding result,[2],binds
DNA 9 (Fig S1F) (dsDNA) DNA 1: AATTTGTGCATCTCGAGTAAACAAATTT DNA 2: AAATTTGTTTACTCGAGATGCACAAATT,binding result,[2],binds
DNA 6 (Fig S1F) (dsDNA) DNA 1: AATTTGCGCATTTCGAGTAAACAAATTT DNA 2: AAATTTGTTTACTCGAAATGCGCAAATT,binding result,[2],binds
DNA 7 (Fig S1F) (dsDNA) DNA 1: AATTTGCCGCATTCGAGTAAACAAATTT DNA 2: AAATTTGTTTACTCGAATGCGGCAAATT,binding result,[2],binds
DNA 1 (Fig S1F) (dsDNA) DNA 1: AATTTGCGCATCTCGAGTAAACAAATTT DNA 2: AAATTTGTTTACTCGAGATGCGCAAATT,binding result,[2],binds

# — paper PMC12820563, “FoxP3 forms a head-to-head dimer in vivo and stabilizes its multimerization on adjacent microsatellites”
